Results taken from publication PMC10689933 (Molecular Therapy Oncolytics, 2023).

T1: CD24, membrane-associated, on human cells (Homo sapiens, UniProt P25063)
T1 chain: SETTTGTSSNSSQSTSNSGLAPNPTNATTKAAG

T2: His-tagged CD24 antigen (Homo sapiens (species assumed), UniProt P25063)
T2 chain: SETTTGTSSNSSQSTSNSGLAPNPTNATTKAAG

B1: PPAB001, bispecific antibody fusion protein against CD47 and CD24 (bispecific antibody, V domains shown)
VH: VKLVESGGGLVQPGGSLKLSCAASGDSVTSKSMSWVRQAPSGGLQWIGRTYPDNGDSSYTPSVRSRFIISRDNAKNTLYLQMRKVRSEDTGFYYCARQGDYWGQGTTLTVSS
VL: DVVMTQTPLTLSLSPGQPASISCKSSQSGSIGRAKTYLNWYQQRPGQAPKLLIYDASKLDSGVPDRFTGSGSGTDFTLKISRVEAEDLGVYYCWQGTHFPYTFGGGTKLEIK
B2: humanized anti-CD24 antibody with common light chain (antibody, V domains shown)
VH: VKLVESGGGLVQPGGSLKLSCAASGDSVTSKSMSWVRQAPSGGLQWIGRTYPDNGDSSYTPSVRSRFIISRDNAKNTLYLQMRKVRSEDTGFYYCARQGDYWGQGTTLTVSS
VL: DVVMTQTPLTLSLSPGQPASISCKSSQSGSIGRAKTYLNWYQQRPGQAPKLLIYDASKLDSGVPDRFTGSGSGTDFTLKISRVEAEDLGVYYCWQGTHFPYTFGGGTKLEIK

Tests used:
[1] = target: T1, CD24, membrane-associated, on human …; assay: flow cytometry on cells
[2] = target: T2, His-tagged CD24 antigen; assay: ELISA

Binder	binding result [1]	binding result [2]
B1	binds	binds
B2	binds	–
